{"source": "patent US20240247080A1", "about": "“GLP1/GIP/NPY2 RECEPTOR TRIPLE AGONISTS” (Boehringer Ingelheim International GmbH, priority 2022, published 2024)", "binders": {"B1": {"name": "Compound 44 (peptide)", "peptide": "YXEGTFTSDYSIXLEKQAQXAFVEWLIKGGPSSGQSXRHYYNWLTRQRY", "modifications": "Aib at 2, 13, 20, 37; K28 side chain: C20DA-gGlu-gGlu-gGlu-gGlu-gGlu-gGlu-eLys; C-terminal NH2"}, "B2": {"name": "Compound 46 (peptide)", "peptide": "B1 peptide with Q17E, A21K, Q35A, X37L", "modifications": "Aib at 2, 13, 20; K28 side chain: C20DA-gGlu-gGlu-gGlu-gGlu-gGlu-gGlu-eLys; C-terminal NH2"}, "B3": {"name": "Compound 51 (peptide)", "peptide": "B1 peptide with Q19E, E24Q, Q35A, X37L", "modifications": "Aib at 2, 13, 20; K28 side chain: C18DA-gGlu-gGlu-gGlu-gGlu-gGlu-gGlu-eLys; C-terminal NH2"}, "B4": {"name": "Compound 48 (peptide)", "peptide": "B1 peptide with S33E, G34P, X37I", "modifications": "Aib at 2, 13, 20; K28 side chain: C20DA-gGlu-gGlu-gGlu-gGlu-gGlu-gGlu-eLys; C-terminal NH2"}, "B5": {"name": "Compound 49 (peptide)", "peptide": "B1 peptide with Q35E", "modifications": "Aib at 2, 13, 20, 37; K28 side chain: C20DA-gGlu-gGlu-gGlu-gGlu-gGlu-gGlu-eLys; C-terminal NH2"}, "B6": {"name": "Compound 53 (peptide)", "peptide": "B1 peptide with E24Q, S32E, Q35A, X37L", "modifications": "Aib at 2, 13, 20; K28 side chain: C18DA-gGlu-gGlu-gGlu-gGlu-gGlu; C-terminal NH2"}, "B7": {"name": "Compound 50 (peptide)", "peptide": "B1 peptide with G34Y, Q35E, X37L", "modifications": "Aib at 2, 13, 20; K28 side chain: C20DA-gGlu-gGlu-gGlu-gGlu-gGlu-gGlu-eLys; C-terminal NH2"}, "B8": {"name": "Compound 47 (peptide)", "peptide": "B1 peptide with E24Q, Q35V, X37L", "modifications": "Aib at 2, 13, 20; K28 side chain: C20DA-gGlu-gGlu-gGlu-gGlu-gGlu-gGlu-eLys; C-terminal NH2"}}, "note": "Where a chain is given by its changes, count along the chain named.", "data": [{"target": "human GLP-1 receptor (human, UniProt P43220 24-463)", "experiment": "cell-based or functional assay", "units": {"EC50, CreLuc assay, 0.5% hP": "nM", "EC50, CreLuc assay, 100% hP": "nM"}, "values": [{"binder": "B1", "EC50, CreLuc assay, 0.5% hP": 0.07, "EC50, CreLuc assay, 100% hP": 2.12}, {"binder": "B2", "EC50, CreLuc assay, 0.5% hP": 0.21, "EC50, CreLuc assay, 100% hP": 5.94}, {"binder": "B3", "EC50, CreLuc assay, 0.5% hP": 0.15, "EC50, CreLuc assay, 100% hP": 4.66}, {"binder": "B4", "EC50, CreLuc assay, 0.5% hP": 0.07, "EC50, CreLuc assay, 100% hP": 3.1}, {"binder": "B5", "EC50, CreLuc assay, 0.5% hP": 0.12, "EC50, CreLuc assay, 100% hP": 2.08}, {"binder": "B6", "EC50, CreLuc assay, 0.5% hP": 0.09, "EC50, CreLuc assay, 100% hP": 3.46}, {"binder": "B7", "EC50, CreLuc assay, 0.5% hP": 0.13, "EC50, CreLuc assay, 100% hP": 3.75}, {"binder": "B8", "EC50, CreLuc assay, 0.5% hP": 0.07, "EC50, CreLuc assay, 100% hP": 1.14}]}, {"target": "T1, human GIP receptor (human, UniProt P48546 22-466)", "T1 sequence (looked up)": "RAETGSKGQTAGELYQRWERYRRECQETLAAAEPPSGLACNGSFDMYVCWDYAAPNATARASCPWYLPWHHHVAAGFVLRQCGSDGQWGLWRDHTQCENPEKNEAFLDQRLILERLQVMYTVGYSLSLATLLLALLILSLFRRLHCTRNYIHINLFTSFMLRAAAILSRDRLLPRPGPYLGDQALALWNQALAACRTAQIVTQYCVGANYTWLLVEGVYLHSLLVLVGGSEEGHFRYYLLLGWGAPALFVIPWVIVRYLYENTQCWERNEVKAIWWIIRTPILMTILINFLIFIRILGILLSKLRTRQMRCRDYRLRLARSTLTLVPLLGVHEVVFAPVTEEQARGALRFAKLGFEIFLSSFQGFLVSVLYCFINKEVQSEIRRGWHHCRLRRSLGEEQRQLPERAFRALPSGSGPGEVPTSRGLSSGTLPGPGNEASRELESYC", "experiment": "cell-based or functional assay", "units": {"EC50, CreLuc assay, 0.5% hP": "nM", "EC50, CreLuc assay, 100% hP": "nM"}, "values": [{"binder": "B1", "EC50, CreLuc assay, 0.5% hP": 0.05, "EC50, CreLuc assay, 100% hP": 1.14}, {"binder": "B2", "EC50, CreLuc assay, 0.5% hP": 0.2, "EC50, CreLuc assay, 100% hP": 1.21}, {"binder": "B3", "EC50, CreLuc assay, 0.5% hP": 0.23, "EC50, CreLuc assay, 100% hP": 1.37}, {"binder": "B4", "EC50, CreLuc assay, 0.5% hP": 0.07, "EC50, CreLuc assay, 100% hP": 0.68}, {"binder": "B5", "EC50, CreLuc assay, 0.5% hP": 0.07, "EC50, CreLuc assay, 100% hP": 1.25}, {"binder": "B6", "EC50, CreLuc assay, 0.5% hP": 0.13, "EC50, CreLuc assay, 100% hP": 1.38}, {"binder": "B7", "EC50, CreLuc assay, 0.5% hP": 0.12, "EC50, CreLuc assay, 100% hP": 1.47}, {"binder": "B8", "EC50, CreLuc assay, 0.5% hP": 0.25, "EC50, CreLuc assay, 100% hP": 0.73}]}, {"target": "T2, human neuropeptide Y2 (NPY2) receptor (human, UniProt P49146 1-381)", "T2 sequence (looked up)": "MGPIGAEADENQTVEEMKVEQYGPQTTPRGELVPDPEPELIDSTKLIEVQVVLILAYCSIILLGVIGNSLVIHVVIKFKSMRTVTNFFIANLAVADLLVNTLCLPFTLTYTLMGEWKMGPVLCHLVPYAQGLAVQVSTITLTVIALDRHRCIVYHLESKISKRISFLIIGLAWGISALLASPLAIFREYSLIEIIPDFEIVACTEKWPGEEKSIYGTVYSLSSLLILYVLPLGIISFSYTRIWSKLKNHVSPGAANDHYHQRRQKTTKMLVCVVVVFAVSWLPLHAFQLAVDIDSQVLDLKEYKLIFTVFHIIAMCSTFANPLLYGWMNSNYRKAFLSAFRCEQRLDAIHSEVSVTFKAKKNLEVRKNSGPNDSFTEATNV", "experiment": "cell-based or functional assay", "units": {"EC50, CreLuc assay, 0.5% hP": "nM", "EC50, CreLuc assay, 100% hP": "nM"}, "values": [{"binder": "B1", "EC50, CreLuc assay, 0.5% hP": 9.35, "EC50, CreLuc assay, 100% hP": 24.5}, {"binder": "B2", "EC50, CreLuc assay, 0.5% hP": 10.2, "EC50, CreLuc assay, 100% hP": 36}, {"binder": "B3", "EC50, CreLuc assay, 0.5% hP": 13.8, "EC50, CreLuc assay, 100% hP": 42.2}, {"binder": "B4", "EC50, CreLuc assay, 0.5% hP": 9.77, "EC50, CreLuc assay, 100% hP": 35.2}, {"binder": "B5", "EC50, CreLuc assay, 0.5% hP": 12.5, "EC50, CreLuc assay, 100% hP": 36.8}, {"binder": "B6", "EC50, CreLuc assay, 0.5% hP": 13.2, "EC50, CreLuc assay, 100% hP": 50.6}, {"binder": "B7", "EC50, CreLuc assay, 0.5% hP": 11.8, "EC50, CreLuc assay, 100% hP": 52.5}, {"binder": "B8", "EC50, CreLuc assay, 0.5% hP": 7.9, "EC50, CreLuc assay, 100% hP": 30.5}]}]}
